In US11857601 one finds Kd data, which are given here for four substances.

pKd: −log10 of the molar value.

Assay [1] deals with hIL2Rα. The experiment in a line: literature reference; Charych, PLOS ONE 2017.
Assay [2] has as its target hIL2Rβ. The experiment in a line: literature reference; Charych, PLOS ONE 2017.
The target in assay [3] is hIL2Rα. The experiment in a line: literature reference; Stauber, PNAS 2006.
Assay [4] has as its target hIL2Rβ. Briefly: literature reference; Stauber, PNAS 2006.

Regarding NKTR-214 (1-PEG-IL2), the pKd in the assay with hIL2Rα [1] is 6.72; with hIL2Rβ [2] it was 5.75.
With NKTR-214 (2-PEG-IL2), the pKd with hIL2Rα [1] is 6.31; in the assay with hIL2Rβ [2], 5.40.
On the same counts, the results for NKTR-214 (IL2) are 8.07 and 6.62.
With hIL2w, the pKd with hIL2Rα [3] was 8.00; with hIL2Rβ [4] it was 6.84.
